A word on the Kd: it is the equilibrium constant for the complex coming apart. For orientation: koff means the first-order rate constant of dissociation. Broadly, the kon is the second-order rate constant of association.

This is an account of results in patent publication US20260167721A1 (ABLEXIS, published 2026).

The target in experiment [1] is T1, human CD3 (TCR/CD3 complex) on the cell surface (human, UniProt P07766 23-207; P09693 23-182; P04234 22-171; P20963 22-164).
T1 construct: whole, on cells; also called CD3 on Pan-T cells; CD3 on Jurkat WT cells
Put plainly: flow cytometry, Pan-T cells, 1 ug/mL. A general note: A flow cytometer gives signals particle by particle.

In experiment [2] the target is T1, human CD3 (TCR/CD3 complex) on the cell …. Put plainly: flow cytometry, Pan-T cells, 10 ug/mL.
For experiment [3] the target is unchanged. Put plainly: flow cytometry, Jurkat WT cells, 1 ug/mL.
Experiment [4] shares this target. Put plainly: flow cytometry, Jurkat WT cells, 10 ug/mL.
The target in experiment [5] is T2, recombinant CD3 proteins (UniProt P07766 23-126).
T2 construct: elsewhere it uses human CD3 E/D and E/G heterodimers
Put plainly: Octet BLI, recombinant CD3; Full R^2 0.995. In general terms: BLI is a label-free optical method that tracks binding on a fibre tip over time.

In experiment [6] the target is T2, recombinant CD3 proteins. Put plainly: Octet BLI, recombinant CD3; Full R^2 0.9943.
The target of experiment [7] is T1, human CD3 (TCR/CD3 complex) on the cell …. The experiment can be described thus: flow cytometry, gMFI Jurkat WT over Jurkat TCRb KO, 1 ug/mL.
The target is the same in experiment [8]. The experiment can be described thus: flow cytometry, gMFI Jurkat WT over Jurkat TCRb KO, 10 ug/mL.
Experiment [9] addresses T2, recombinant CD3 proteins. Put plainly: Octet BLI, recombinant CD3; Full R^2 0.999.
Experiment [10] has as its target T2, recombinant CD3 proteins. Put plainly: Octet BLI, recombinant CD3; Full R^2 0.951.
Experiment [11] has as its target T2, recombinant CD3 proteins. Put plainly: Octet BLI, recombinant CD3; Full R^2 0*.
Experiment [12] addresses T2, recombinant CD3 proteins. Put plainly: Octet BLI, recombinant CD3; Full R^2 0.000*.

T1 sequence (P07766 23-207, chain 1 of 4): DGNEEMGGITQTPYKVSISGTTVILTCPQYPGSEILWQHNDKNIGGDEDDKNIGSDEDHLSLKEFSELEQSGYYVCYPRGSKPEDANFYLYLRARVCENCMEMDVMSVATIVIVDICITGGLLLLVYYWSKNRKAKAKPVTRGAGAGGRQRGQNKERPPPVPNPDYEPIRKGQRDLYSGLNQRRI
T1 sequence (P09693 23-182, chain 2 of 4): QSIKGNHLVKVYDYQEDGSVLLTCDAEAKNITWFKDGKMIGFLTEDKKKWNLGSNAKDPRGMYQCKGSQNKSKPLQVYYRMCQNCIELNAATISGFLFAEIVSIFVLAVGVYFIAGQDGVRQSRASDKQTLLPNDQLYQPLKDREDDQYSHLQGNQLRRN
T1 sequence (P04234 22-171, chain 3 of 4): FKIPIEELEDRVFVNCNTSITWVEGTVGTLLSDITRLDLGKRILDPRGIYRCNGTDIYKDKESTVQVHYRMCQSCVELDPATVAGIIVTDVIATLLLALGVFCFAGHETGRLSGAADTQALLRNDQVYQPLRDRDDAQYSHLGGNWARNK
T1 sequence (P20963 22-164, chain 4 of 4): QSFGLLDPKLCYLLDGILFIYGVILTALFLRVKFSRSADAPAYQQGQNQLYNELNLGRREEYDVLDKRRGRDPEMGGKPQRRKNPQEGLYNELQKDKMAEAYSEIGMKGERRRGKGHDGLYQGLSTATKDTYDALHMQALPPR
T2 sequence (P07766 23-126): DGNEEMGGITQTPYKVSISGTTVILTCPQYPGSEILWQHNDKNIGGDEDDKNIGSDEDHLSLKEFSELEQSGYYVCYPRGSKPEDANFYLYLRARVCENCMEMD

B1: Control Humanized anti-CD3 (high affinity) scFv-Fc knob/TM (bispecific antibody)
scFv: EVQLVESGGGLVQPGGSLRLSCAASGFTFSTYAMNWVRQAPGKGLEWVGRIRSKYNNYATYYADSVKGRFTISRDDSKNTLYLQMNSLRAEDTAVYYCVRHGNFGDSYVSWFAYWGQGTLVTVSSGKPGSGKPGSGKPGSGKPGSQAVVTQEPSLTVSPGGTVTLTCGSSTGAVTTSNYANWVQQKPGKSPRGLIGGTNKRAPGVPARFSGSLLGGKAALTISGAQPEDEADYYCALWYSNHWVFGGGTKLTVLGGGGSDKTHTCPPCPAPEFEGGPSVFLFPPKPKDTLMISRTPEVTCVVVDVSHEDPEVKFNWYVDGVEVHNAKTKPREEQYNSTYRVVSVLTVLHQDWLNGKEYKCKVSNKALPASIEKTISKAKGQPREPQVYTLPPCREEMTKNQVSLWCLVKGFYPSDIAVEWESNGQPENNYKTTPPVLDSDGSFFLYSKLTVDKSRWQQGNVFSCSVMHEALHNHYTQKSLSLSPGK
heavy: EVQLVQSGAEVKKPGSSVKVSCKASGYTITDSNIHWVRQAPGQSLEWIGYIYPYNGGTDYNQKFKNRATLTVDNPTNTAYMELSSLRSEDTAFYYCVNGNPWLAYWGQGTLVTVSSASTKGPSVFPLAPSSKSTSGGTAALGCLVKDYFPEPVTVSWNSGALTSGVHTFPAVLQSSGLYSLSSVVTVPSSSLGTQTYICNVNHKPSNTKVDKRVEPKSCDKTHTCPPCPAPEFEGGPSVFLFPPKPKDTLMISRTPEVTCVVVDVSHEDPEVKFNWYVDGVEVHNAKTKPREEQYNSTYRVVSVLTVLHQDWLNGKEYKCKVSNKALPASIEKTISKAKGQPREPQVCTLPPSREEMTKNQVSLSCAVKGFYPSDIAVEWESNGQPENNYKTTPPVLDSDGSFFLVSKLTVDKSRWQQGNVFSCSVMHEALHNRFTQKSLSLSPGK
light: DIQLTQSPSTLSASVGDRVTITCRASESLDNYGIRFLTWFQQKPGKAPKLLMYAASNQGSGVPSRFSGSGSGTEFTLTISSLQPDDFATYYCQQTKEVPWSFGQGTKVEVKRTVAAPSVFIFPPSDEQLKSGTASVVCLLNNFYPREAKVQWKVDNALQSGNSQESVTEQDSKDSTYSLSSTLTLSKADYEKHKVYACEVTHQGLSSPVTKSFNRGEC
Regarding B1, the “% Positive” value in [1] and in experiment [2] was 99.4% each time. Further, the gMFI worked out at 66400 gMFI in experiment [1], 178000 gMFI in experiment [2], 15500 gMFI in experiment [3] and 21600 gMFI in experiment [4]. Further, the values for the Kd with recombinant CD3 proteins [5] and in the experiment with recombinant CD3 proteins [6] were 0.0449 µM and 0.0395 µM, respectively. For the same molecule, the off-rate (koff) is 0.0111 s⁻¹ with recombinant CD3 proteins [5] and 0.0102 s⁻¹ in the experiment with recombinant CD3 proteins [6]. The kon with recombinant CD3 proteins [5] came out at 248000 M⁻¹ s⁻¹; with recombinant CD3 proteins [6] it was 259000 M⁻¹ s⁻¹. Also, the “Jurkat WT/KO (Fold)” value in experiment [7] stood at 4 fold; in experiment [8], 5.2 fold.

B2: CD3 × CD33-BspAb125 (bispecific antibody)
chain 1: not shown
chain 2: EVQLVQSGAEVKKPGSSVKVSCKASGYTITDSNIHWVRQAPGQSLEWIGYIYPYNGGTDYNQKFKNRATLTVDNPTNTAYMELSSLRSEDTAFYYCVNGNPWLAYWGQGTLVTVSSASTKGPSVFPLAPSSKSTSGGTAALGCLVKDYFPEPVTVSWNSGALTSGVHTFPAVLQSSGLYSLSSVVTVPSSSLGTQTYICNVNHKPSNTKVDKRVEPKSCDKTHTCPPCPAPEFEGGPSVFLFPPKPKDTLMISRTPEVTCVVVDVSHEDPEVKFNWYVDGVEVHNAKTKPREEQYNSTYRVVSVLTVLHQDWLNGKEYKCKVSNKALPASIEKTISKAKGQPREPQVCTLPPSREEMTKNQVSLSCAVKGFYPSDIAVEWESNGQPENNYKTTPPVLDSDGSFFLVSKLTVDKSRWQQGNVFSCSVMHEALHNRFTQKSLSLSPGK
chain 3: DIQLTQSPSTLSASVGDRVTITCRASESLDNYGIRFLTWFQQKPGKAPKLLMYAASNQGSGVPSRFSGSGSGTEFTLTISSLQPDDFATYYCQQTKEVPWSFGQGTKVEVKRTVAAPSVFIFPPSDEQLKSGTASVVCLLNNFYPREAKVQWKVDNALQSGNSQESVTEQDSKDSTYSLSSTLTLSKADYEKHKVYACEVTHQGLSSPVTKSFNRGEC
In the case of B2, in the experiment with recombinant CD3 proteins [9], the Kd was 0.319 µM, the off-rate constant (koff) is 0.00375 s⁻¹ and the kon is 11800 M⁻¹ s⁻¹.

B3: CD3 × CD33-BspAb123 (bispecific antibody)
chain 1: QTVVTQEPSFSVSPGGTVTLTCGLNSGSVSTSYYPSWYQQTPGQTPRTLIYSTNTRSSGVPDRFSGSILGNKAALTITGAQADDESDYYCVLYMGSGIWVFGCGTKLTVLGGGGSGGGGSGGGGSGGGGSQVQLVQSGAEVKKPGASLKVSCKASGYTFTSYYMHWVRQAPGQCLEWMGIINPSNGNTISAQKFQGRVTMTRDTSTSTVYMEMSSLRSEDTAVYYCVRSWGYYVMDVWGQGTTVTVSSDKTHTCPPCPAPEFEGGPSVFLFPPKPKDTLMISRTPEVTCVVVDVSHEDPEVKFNWYVDGVEVHNAKTKPREEQYNSTYRVVSVLTVLHQDWLNGKEYKCKVSNKALPASIEKTISKAKGQPREPQVYTLPPCREEMTKNQVSLWCLVKGFYPSDIAVEWESNGQPENNYKTTPPVLDSDGSFFLYSKLTVDKSRWQQGNVFSCSVMHEALHNHYTQKSLSLSPGK
chain 2: EVQLVQSGAEVKKPGSSVKVSCKASGYTITDSNIHWVRQAPGQSLEWIGYIYPYNGGTDYNQKFKNRATLTVDNPTNTAYMELSSLRSEDTAFYYCVNGNPWLAYWGQGTLVTVSSASTKGPSVFPLAPSSKSTSGGTAALGCLVKDYFPEPVTVSWNSGALTSGVHTFPAVLQSSGLYSLSSVVTVPSSSLGTQTYICNVNHKPSNTKVDKRVEPKSCDKTHTCPPCPAPEFEGGPSVFLFPPKPKDTLMISRTPEVTCVVVDVSHEDPEVKFNWYVDGVEVHNAKTKPREEQYNSTYRVVSVLTVLHQDWLNGKEYKCKVSNKALPASIEKTISKAKGQPREPQVCTLPPSREEMTKNQVSLSCAVKGFYPSDIAVEWESNGQPENNYKTTPPVLDSDGSFFLVSKLTVDKSRWQQGNVFSCSVMHEALHNRFTQKSLSLSPGK
chain 3: DIQLTQSPSTLSASVGDRVTITCRASESLDNYGIRFLTWFQQKPGKAPKLLMYAASNQGSGVPSRFSGSGSGTEFTLTISSLQPDDFATYYCQQTKEVPWSFGQGTKVEVKRTVAAPSVFIFPPSDEQLKSGTASVVCLLNNFYPREAKVQWKVDNALQSGNSQESVTEQDSKDSTYSLSSTLTLSKADYEKHKVYACEVTHQGLSSPVTKSFNRGEC
As for B3, in the experiment with recombinant CD3 proteins [10], the dissociation constant Kd was determined as 0.012 µM, the off-rate (koff) was 0.00103 s⁻¹ and the kon stood at 85500 M⁻¹ s⁻¹.

B4: Control Humanized anti-CD3 (low affinity) scFv-Fc knob/TM (bispecific antibody)
scFv: EVQLVESGGGLVQPGGSLRLSCAASGFTFSTYAMNWVRQAPGKGLEWVGRIRSKYNNYATYYADSVKGRFTISRDDSKNTLYLQMNSLRAEDTAVYYCVRHGNFGDSYVSWFDYWGQGTLVTVSSGKPGSGKPGSGKPGSGKPGSQAVVTQEPSLTVSPGGTVTLTCGSSTGAVTTSNYANWVQQKPGKSPRGLIGGTNKRAPGVPARFSGSLLGGKAALTISGAQPEDEADYYCALWYSNHWVFGGGTKLTVLGGGGSDKTHTCPPCPAPEFEGGPSVFLFPPKPKDTLMISRTPEVTCVVVDVSHEDPEVKFNWYVDGVEVHNAKTKPREEQYNSTYRVVSVLTVLHQDWLNGKEYKCKVSNKALPASIEKTISKAKGQPREPQVYTLPPCREEMTKNQVSLWCLVKGFYPSDIAVEWESNGQPENNYKTTPPVLDSDGSFFLYSKLTVDKSRWQQGNVFSCSVMHEALHNHYTQKSLSLSPGK
heavy: EVQLVQSGAEVKKPGSSVKVSCKASGYTITDSNIHWVRQAPGQSLEWIGYIYPYNGGTDYNQKFKNRATLTVDNPTNTAYMELSSLRSEDTAFYYCVNGNPWLAYWGQGTLVTVSSASTKGPSVFPLAPSSKSTSGGTAALGCLVKDYFPEPVTVSWNSGALTSGVHTFPAVLQSSGLYSLSSVVTVPSSSLGTQTYICNVNHKPSNTKVDKRVEPKSCDKTHTCPPCPAPEFEGGPSVFLFPPKPKDTLMISRTPEVTCVVVDVSHEDPEVKFNWYVDGVEVHNAKTKPREEQYNSTYRVVSVLTVLHQDWLNGKEYKCKVSNKALPASIEKTISKAKGQPREPQVCTLPPSREEMTKNQVSLSCAVKGFYPSDIAVEWESNGQPENNYKTTPPVLDSDGSFFLVSKLTVDKSRWQQGNVFSCSVMHEALHNRFTQKSLSLSPGK
light: DIQLTQSPSTLSASVGDRVTITCRASESLDNYGIRFLTWFQQKPGKAPKLLMYAASNQGSGVPSRFSGSGSGTEFTLTISSLQPDDFATYYCQQTKEVPWSFGQGTKVEVKRTVAAPSVFIFPPSDEQLKSGTASVVCLLNNFYPREAKVQWKVDNALQSGNSQESVTEQDSKDSTYSLSSTLTLSKADYEKHKVYACEVTHQGLSSPVTKSFNRGEC
For the molecule B4, the entries for the “% Positive” value in experiment [1] and in experiment [2] were 1.5% and 7.9%, respectively. Besides, the gMFI in [1] worked out at 2070 gMFI; in experiment [2], 3410 gMFI; in experiment [3] it was 1920 gMFI; in [4], 2090 gMFI. Further, the figures for the dissociation constant (Kd) with recombinant CD3 proteins [11] and in the experiment with recombinant CD3 proteins [12] were 0.00427 µM and 0.00438 µM, respectively. The results for the koff with recombinant CD3 proteins [11] and in the experiment with recombinant CD3 proteins [12] were 5.33e-05 s⁻¹ and 5.48e-05 s⁻¹, respectively. For the same molecule, the kon with recombinant CD3 proteins [11] and with recombinant CD3 proteins [12] was 12500 M⁻¹ s⁻¹ throughout. In addition, the figures for the “Jurkat WT/KO (Fold)” value in experiment [7] and in experiment [8] were 0.9 fold and 1 fold, respectively.
